Measured values taken from patent publication US20160237156A1.

Columns and labels:
[1] = biological target: SNAP-tag-CXCR4 (Tag-lite labeled CXCR4 cells, Cisbio Bioassays) (UniProt P61073); test: Tag-lite HTRF competition with 50 nM fluorescent SDF-1, Cheng-Prusoff
[2] = biological target: SNAP-tag-CXCR4 (Tag-lite labeled CXCR4 cells, Cisbio Bioassays) (UniProt P61073); test: Tag-lite HTRF competition with 50 nM fluorescent SDF-1 on Tag-lite labeled CXCR4 cells
CXCR4 (human) = CXCR4 (human) (UniProt P61073); test: cell-based or functional assay
CXCR4 (human), sequence (P61073 whole entry): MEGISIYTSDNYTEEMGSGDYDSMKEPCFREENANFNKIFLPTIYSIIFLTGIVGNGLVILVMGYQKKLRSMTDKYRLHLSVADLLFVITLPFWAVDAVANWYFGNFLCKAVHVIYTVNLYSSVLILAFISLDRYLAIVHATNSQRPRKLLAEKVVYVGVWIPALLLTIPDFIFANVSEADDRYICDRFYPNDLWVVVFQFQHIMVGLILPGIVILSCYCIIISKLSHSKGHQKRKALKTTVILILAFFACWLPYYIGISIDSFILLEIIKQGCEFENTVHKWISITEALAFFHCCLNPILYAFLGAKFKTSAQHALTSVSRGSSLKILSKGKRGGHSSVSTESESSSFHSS

SNAP-tag-CXCR4 (Tag-lite labeled CXCR4 cells, Cisbio Bioassays), sequence (P61073 whole entry): as above

A Ki [1] of 0.97 nM, an IC50 [2] of 4.4 nM and an inhibition of SDF-1 induced migration of Ramos cells, EC50 (CXCR4 (human)) of 2.1 nM were found for “mouse anti-human CXCR4 monoclonal antibody (Clone 12G5, R&D system)” in this work.
